The text below walks through data of article PMC8145246 (Toxins, 2021).

B1: MazF-mt1 toxin (M. tb), purified protein (enzyme)
chain: MMRRGEIWQVDLDPARGSEANNQRPAVVVSNDRANATATRLGRGVITVVPVTSNIAKVYPFQVLLSATTTGLQVDCKAQAEQIRSIATERLLRPIGRVSAAELAQLDEALKLHLDLWS

Data set [1] deals with the molecule itself. The data set is described as follows: crystal structure.
The target in data set [2] is B1. Put plainly: crystal structure. Conditions: both partners purified.

With B1, the binding result in data set [1] was “binds”.

Consider TLEDDYANAWQEWSAAG [MazE-mt1 α3 peptide (Thr42-Gly58)], for which, in data set [2], the binding result is on record as “binds”.
